Numbered stars: 1 amine (or outer) side, 2 acyl side, 3 side chain; on linkers, the order of the positions; unused ones are H or OH. Bridge positions count the residues as written; N and C are the ends. Side chains are listed from the residue outwards. Ends that are not written are not given here. * marks the point of attachment. C20 diacid = O=C(O)CCCCCCCCCCCCCCCCCCC(=O)*; γGlu = O=C(O)[C@H](CCC(=O)[*:2])N[*:1]
T1: human amylin receptor (amylin 3(a) receptor: human calcitonin receptor with RAMP-3) (human, UniProt P30988 25-474; O60896 24-148)
T1 construct: whole, on cells; also called hAmylin-R; hAmylinR
T1 sequence (looked up) 1: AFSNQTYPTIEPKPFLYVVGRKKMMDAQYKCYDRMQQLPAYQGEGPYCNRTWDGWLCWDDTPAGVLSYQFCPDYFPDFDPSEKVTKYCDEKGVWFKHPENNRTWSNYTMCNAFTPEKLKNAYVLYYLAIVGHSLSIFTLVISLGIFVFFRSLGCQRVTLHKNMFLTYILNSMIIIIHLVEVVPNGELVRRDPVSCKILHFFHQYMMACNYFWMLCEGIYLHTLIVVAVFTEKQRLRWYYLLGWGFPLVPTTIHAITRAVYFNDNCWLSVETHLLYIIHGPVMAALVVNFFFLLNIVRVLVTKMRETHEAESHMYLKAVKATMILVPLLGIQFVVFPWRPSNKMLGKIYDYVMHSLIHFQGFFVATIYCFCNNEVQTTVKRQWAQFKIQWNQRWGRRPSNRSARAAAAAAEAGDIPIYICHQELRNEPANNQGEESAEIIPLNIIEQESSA
T1 sequence (looked up) 2: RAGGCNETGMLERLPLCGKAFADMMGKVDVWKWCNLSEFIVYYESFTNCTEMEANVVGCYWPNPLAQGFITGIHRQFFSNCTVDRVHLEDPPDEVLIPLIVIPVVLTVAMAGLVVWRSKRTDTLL

B1: N^ε1-[(4S)-4-carboxy-4-(19-carboxynonadecanoylamino)butanoyl]-[His14,Arg17,Pro21,Pro27,Arg34]-h-amylin (peptide)
peptide: K([γGlu-C20 diacid])CNTATCATQRLAHFLRHSSPNFGAIPSSTNVGRNTY-NH2
modifications: disulfide 2-7; N-terminus assumed
SMILES: CC[C@H](C)[C@H](NC(=O)[C@H](C)NC(=O)CNC(=O)[C@H](Cc1ccccc1)NC(=O)[C@H](CC(N)=O)NC(=O)[C@@H]1CCCN1C(=O)[C@H](CO)NC(=O)[C@H](CO)NC(=O)[C@H](Cc1c[nH]cn1)NC(=O)[C@H](CCCNC(=N)N)NC(=O)[C@H](CC(C)C)NC(=O)[C@H](Cc1ccccc1)NC(=O)[C@H](Cc1c[nH]cn1)NC(=O)[C@H](C)NC(=O)[C@H](CC(C)C)NC(=O)[C@H](CCCNC(=N)N)NC(=O)[C@H](CCC(N)=O)NC(=O)[C@@H](NC(=O)[C@H](C)NC(=O)[C@@H]1CSSC[C@H](NC(=O)[C@@H](N)CCCCNC(=O)CC[C@H](NC(=O)CCCCCCCCCCCCCCCCCCC(=O)O)C(=O)O)C(=O)N[C@@H](CC(N)=O)C(=O)N[C@@H]([C@@H](C)O)C(=O)N[C@@H](C)C(=O)N[C@@H]([C@@H](C)O)C(=O)N1)[C@@H](C)O)C(=O)N1CCC[C@H]1C(=O)N[C@@H](CO)C(=O)N[C@@H](CO)C(=O)N[C@H](C(=O)N[C@@H](CC(N)=O)C(=O)N[C@H](C(=O)NCC(=O)N[C@@H](CCCNC(=N)N)C(=O)N[C@@H](CC(N)=O)C(=O)N[C@H](C(=O)N[C@@H](Cc1ccc(O)cc1)C(N)=O)[C@@H](C)O)C(C)C)[C@@H](C)O
notes: also called 85; compound 85
B2: N^ε1-[(4S)-4-carboxy-4-[[(4S)-4-carboxy-4-(19-carboxynonadecanoylamino)butanoyl]amino]butanoyl]-[Arg17,Pro21,Pro27,His34]-h-amylin (peptide)
peptide: K([γGlu-γGlu-C20 diacid])CNTATCATQRLANFLRHSSPNFGAIPSSTNVGHNTY-NH2
modifications: disulfide 2-7; N-terminus assumed
SMILES: CC[C@H](C)[C@H](NC(=O)[C@H](C)NC(=O)CNC(=O)[C@H](Cc1ccccc1)NC(=O)[C@H](CC(N)=O)NC(=O)[C@@H]1CCCN1C(=O)[C@H](CO)NC(=O)[C@H](CO)NC(=O)[C@H](Cc1c[nH]cn1)NC(=O)[C@H](CCCNC(=N)N)NC(=O)[C@H](CC(C)C)NC(=O)[C@H](Cc1ccccc1)NC(=O)[C@H](CC(N)=O)NC(=O)[C@H](C)NC(=O)[C@H](CC(C)C)NC(=O)[C@H](CCCNC(=N)N)NC(=O)[C@H](CCC(N)=O)NC(=O)[C@@H](NC(=O)[C@H](C)NC(=O)[C@@H]1CSSC[C@H](NC(=O)[C@@H](N)CCCCNC(=O)CC[C@H](NC(=O)CC[C@H](NC(=O)CCCCCCCCCCCCCCCCCCC(=O)O)C(=O)O)C(=O)O)C(=O)N[C@@H](CC(N)=O)C(=O)N[C@@H]([C@@H](C)O)C(=O)N[C@@H](C)C(=O)N[C@@H]([C@@H](C)O)C(=O)N1)[C@@H](C)O)C(=O)N1CCC[C@H]1C(=O)N[C@@H](CO)C(=O)N[C@@H](CO)C(=O)N[C@H](C(=O)N[C@@H](CC(N)=O)C(=O)N[C@H](C(=O)NCC(=O)N[C@@H](Cc1c[nH]cn1)C(=O)N[C@@H](CC(N)=O)C(=O)N[C@H](C(=O)N[C@@H](Cc1ccc(O)cc1)C(N)=O)[C@@H](C)O)C(C)C)[C@@H](C)O
notes: also called 86; compound 86
B3: N^ε1-[(4S)-4-carboxy-4-(19-carboxynonadecanoylamino)butanoyl]-[His14,Arg17,Pro21,Pro27,His35]-h-amylin (peptide)
peptide: K([γGlu-C20 diacid])CNTATCATQRLAHFLRHSSPNFGAIPSSTNVGSHTY-NH2
modifications: disulfide 2-7; N-terminus assumed
SMILES: CC[C@H](C)[C@H](NC(=O)[C@H](C)NC(=O)CNC(=O)[C@H](Cc1ccccc1)NC(=O)[C@H](CC(N)=O)NC(=O)[C@@H]1CCCN1C(=O)[C@H](CO)NC(=O)[C@H](CO)NC(=O)[C@H](Cc1c[nH]cn1)NC(=O)[C@H](CCCNC(=N)N)NC(=O)[C@H](CC(C)C)NC(=O)[C@H](Cc1ccccc1)NC(=O)[C@H](Cc1c[nH]cn1)NC(=O)[C@H](C)NC(=O)[C@H](CC(C)C)NC(=O)[C@H](CCCNC(=N)N)NC(=O)[C@H](CCC(N)=O)NC(=O)[C@@H](NC(=O)[C@H](C)NC(=O)[C@@H]1CSSC[C@H](NC(=O)[C@@H](N)CCCCNC(=O)CC[C@H](NC(=O)CCCCCCCCCCCCCCCCCCC(=O)O)C(=O)O)C(=O)N[C@@H](CC(N)=O)C(=O)N[C@@H]([C@@H](C)O)C(=O)N[C@@H](C)C(=O)N[C@@H]([C@@H](C)O)C(=O)N1)[C@@H](C)O)C(=O)N1CCC[C@H]1C(=O)N[C@@H](CO)C(=O)N[C@@H](CO)C(=O)N[C@H](C(=O)N[C@@H](CC(N)=O)C(=O)N[C@H](C(=O)NCC(=O)N[C@@H](CO)C(=O)N[C@@H](Cc1c[nH]cn1)C(=O)N[C@H](C(=O)N[C@@H](Cc1ccc(O)cc1)C(N)=O)[C@@H](C)O)C(C)C)[C@@H](C)O
notes: also called 66; compound 66
B4: N^ε1-[(4S)-4-carboxy-4-(19-carboxynonadecanoylamino)butanoyl]-[His14,Arg17,Pro21,Pro27,His34]-h-amylin (peptide)
peptide: K([γGlu-C20 diacid])CNTATCATQRLAHFLRHSSPNFGAIPSSTNVGHNTY-NH2
modifications: disulfide 2-7; N-terminus assumed
SMILES: CC[C@H](C)[C@H](NC(=O)[C@H](C)NC(=O)CNC(=O)[C@H](Cc1ccccc1)NC(=O)[C@H](CC(N)=O)NC(=O)[C@@H]1CCCN1C(=O)[C@H](CO)NC(=O)[C@H](CO)NC(=O)[C@H](Cc1c[nH]cn1)NC(=O)[C@H](CCCNC(=N)N)NC(=O)[C@H](CC(C)C)NC(=O)[C@H](Cc1ccccc1)NC(=O)[C@H](Cc1c[nH]cn1)NC(=O)[C@H](C)NC(=O)[C@H](CC(C)C)NC(=O)[C@H](CCCNC(=N)N)NC(=O)[C@H](CCC(N)=O)NC(=O)[C@@H](NC(=O)[C@H](C)NC(=O)[C@@H]1CSSC[C@H](NC(=O)[C@@H](N)CCCCNC(=O)CC[C@H](NC(=O)CCCCCCCCCCCCCCCCCCC(=O)O)C(=O)O)C(=O)N[C@@H](CC(N)=O)C(=O)N[C@@H]([C@@H](C)O)C(=O)N[C@@H](C)C(=O)N[C@@H]([C@@H](C)O)C(=O)N1)[C@@H](C)O)C(=O)N1CCC[C@H]1C(=O)N[C@@H](CO)C(=O)N[C@@H](CO)C(=O)N[C@H](C(=O)N[C@@H](CC(N)=O)C(=O)N[C@H](C(=O)NCC(=O)N[C@@H](Cc1c[nH]cn1)C(=O)N[C@@H](CC(N)=O)C(=O)N[C@H](C(=O)N[C@@H](Cc1ccc(O)cc1)C(N)=O)[C@@H](C)O)C(C)C)[C@@H](C)O
notes: also called 81; compound 81
B5: N^ε1-[(4S)-4-carboxy-4-(19-carboxynonadecanoylamino)butanoyl]-[His14,Arg17,Pro21,Pro27]-h-amylin (peptide)
peptide: K([γGlu-C20 diacid])CNTATCATQRLAHFLRHSSPNFGAIPSSTNVGSNTY-NH2
modifications: disulfide 2-7; N-terminus assumed
SMILES: CC[C@H](C)[C@H](NC(=O)[C@H](C)NC(=O)CNC(=O)[C@H](Cc1ccccc1)NC(=O)[C@H](CC(N)=O)NC(=O)[C@@H]1CCCN1C(=O)[C@H](CO)NC(=O)[C@H](CO)NC(=O)[C@H](Cc1c[nH]cn1)NC(=O)[C@H](CCCNC(=N)N)NC(=O)[C@H](CC(C)C)NC(=O)[C@H](Cc1ccccc1)NC(=O)[C@H](Cc1c[nH]cn1)NC(=O)[C@H](C)NC(=O)[C@H](CC(C)C)NC(=O)[C@H](CCCNC(=N)N)NC(=O)[C@H](CCC(N)=O)NC(=O)[C@@H](NC(=O)[C@H](C)NC(=O)[C@@H]1CSSC[C@H](NC(=O)[C@@H](N)CCCCNC(=O)CC[C@H](NC(=O)CCCCCCCCCCCCCCCCCCC(=O)O)C(=O)O)C(=O)N[C@@H](CC(N)=O)C(=O)N[C@@H]([C@@H](C)O)C(=O)N[C@@H](C)C(=O)N[C@@H]([C@@H](C)O)C(=O)N1)[C@@H](C)O)C(=O)N1CCC[C@H]1C(=O)N[C@@H](CO)C(=O)N[C@@H](CO)C(=O)N[C@H](C(=O)N[C@@H](CC(N)=O)C(=O)N[C@H](C(=O)NCC(=O)N[C@@H](CO)C(=O)N[C@@H](CC(N)=O)C(=O)N[C@H](C(=O)N[C@@H](Cc1ccc(O)cc1)C(N)=O)[C@@H](C)O)C(C)C)[C@@H](C)O
notes: also called 70; compound 70
B6: N^ε1-[(4S)-4-carboxy-4-(19-carboxynonadecanoylamino)butanoyl]-[His14,Arg17,Pro21,Pro27,Pro31]-h-amylin (peptide)
peptide: K([γGlu-C20 diacid])CNTATCATQRLAHFLRHSSPNFGAIPSSTPVGSNTY-NH2
modifications: disulfide 2-7; N-terminus assumed
SMILES: CC[C@H](C)[C@H](NC(=O)[C@H](C)NC(=O)CNC(=O)[C@H](Cc1ccccc1)NC(=O)[C@H](CC(N)=O)NC(=O)[C@@H]1CCCN1C(=O)[C@H](CO)NC(=O)[C@H](CO)NC(=O)[C@H](Cc1c[nH]cn1)NC(=O)[C@H](CCCNC(=N)N)NC(=O)[C@H](CC(C)C)NC(=O)[C@H](Cc1ccccc1)NC(=O)[C@H](Cc1c[nH]cn1)NC(=O)[C@H](C)NC(=O)[C@H](CC(C)C)NC(=O)[C@H](CCCNC(=N)N)NC(=O)[C@H](CCC(N)=O)NC(=O)[C@@H](NC(=O)[C@H](C)NC(=O)[C@@H]1CSSC[C@H](NC(=O)[C@@H](N)CCCCNC(=O)CC[C@H](NC(=O)CCCCCCCCCCCCCCCCCCC(=O)O)C(=O)O)C(=O)N[C@@H](CC(N)=O)C(=O)N[C@@H]([C@@H](C)O)C(=O)N[C@@H](C)C(=O)N[C@@H]([C@@H](C)O)C(=O)N1)[C@@H](C)O)C(=O)N1CCC[C@H]1C(=O)N[C@@H](CO)C(=O)N[C@@H](CO)C(=O)N[C@H](C(=O)N1CCC[C@H]1C(=O)N[C@H](C(=O)NCC(=O)N[C@@H](CO)C(=O)N[C@@H](CC(N)=O)C(=O)N[C@H](C(=O)N[C@@H](Cc1ccc(O)cc1)C(N)=O)[C@@H](C)O)C(C)C)[C@@H](C)O
notes: also called 62; compound 62

These binders were tested against T1, human amylin receptor (amylin 3(a) …) (assay: SPA displacement of 125I-rat amylin, hAmylin 3(a) receptor membranes).
Summary of the method: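 Cell membranes were prepared by homogenisation in Na-HEPES/EDTA buffer, pH 7.4, and stored at −80° C. They were then coupled to SPA beads at 35 ng/μL final and exposed to compounds in assay buffer containing CaCl2, MgCl₂, OA and Tween20. After 120 min at 25° C, plates were counted and IC₅₀ derived.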

Row | IC50 | Binder
1 | 0.876 nM | B1
2 | 0.833 nM | B2
3 | 0.396 nM | B3
4 | 0.271 nM | B4
5 | 0.169 nM | B5
6 | 0.098 nM | B6
